Biological target: recombinant PD-L1, His tagged (human, UniProt Q9NZQ7 19-239)
Assay: pull-down

Chain of recombinant PD-L1, His tagged (Q9NZQ7 19-239): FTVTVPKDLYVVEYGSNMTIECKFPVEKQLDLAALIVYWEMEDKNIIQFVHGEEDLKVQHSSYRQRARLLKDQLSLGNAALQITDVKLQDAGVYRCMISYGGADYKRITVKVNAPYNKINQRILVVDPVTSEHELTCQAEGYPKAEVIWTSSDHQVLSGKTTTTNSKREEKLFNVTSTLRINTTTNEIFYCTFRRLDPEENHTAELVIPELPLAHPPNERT

B1: XQ-P3 biotinylated (ssDNA)
DNA: ACCGACCGTGCTGGACTCATCTCGCTTTTTTCACGGTCCACACTACTATGAGCGAGCCTGGCG
modifications: biotin
B1: binds.

Reference: paper PMC7331476
